# Measurements: publication PMC4001850 (Journal of Alzheimer's disease : JAD, 2011)
# Where no end group is shown, it is not given here.
# B1: eAβPP_(575-624), His-Patch thioredoxin fusion (20-kDa) (domain or fragment, human, UniProt P05067-4 575-624, looked up)
# chain: LTTRPGSGLTNIKTEEISEVKMDAEFRHDSGYEVHHQKLVFFAEDVGSNK
# modifications: also: His-Patch thioredoxin fusion (20 kDa), side not given here
# B2: eAβPP_(290-624), His-Patch thioredoxin fusion (52-kDa) (domain or fragment, human, UniProt P05067-4 290-624, looked up)
# chain: PTTAASTPDAVDKYLETPGDENEHAHFQKAKERLEAKHRERMSQVMREWEEAERQAKNLPKADKKAVIQHFQEKVESLEQEAANERQQLVETHMARVEAMLNDRRRLALENYITALQAVPPRPRHVFNMLKKYVRAEQKDRQHTLKHFEHVRMVDPKKAAQIRSQVMTHLRVIYERMNQSLSLLYNVPAVAEEIQDEVDELLQKEQNYSDDVLANMISEPRISYGNDALMPSLTETKTTVELLPVNGEFSLDDLQPWHSFGADSVPANTENEVEPVDARPAADRGLTTRPGSGLTNIKTEEISEVKMDAEFRHDSGYEVHHQKLVFFAEDVGSNK
# Molecular target: the molecule itself
# Experiment: SEC
row,Protein,stoichiometry N
1,B1,~2
2,B2,~2
